Data taken from US20100144822.

Tested on: Argyrin A

Question: “purified human erythrocyte derived 20S proteasome” was tested. Which “activity of the caspase-, chymotrypsin- and trypsin-like proteasome activities (fluorogenic peptide substrates)” value did it give?
Answer: The value was “incubation of purified human 20S proteasome with Argyrin A led to a dose dependent inhibition of the caspase, trypsin and chymotrypsin like proteasome activities”.
